For one molecule, Kd results are on record in publication PMC8011160.

For experiment [1], the target named is collagen Type I (purified from rat tail) (rat), P02454. Description: ELISA; host protein coated on microtiter wells; recombinant protein varied from 0 to 2 μM; absorbance with BSA subtracted; apparent Kd from the half-maximal binding concentration (GraphPad Prism 6). To be noted: remark: other sources report otherwise.
Experiment [2] deals with T1, fibrinogen (purified from human plasma) (human), P02671.
T1 chain 1: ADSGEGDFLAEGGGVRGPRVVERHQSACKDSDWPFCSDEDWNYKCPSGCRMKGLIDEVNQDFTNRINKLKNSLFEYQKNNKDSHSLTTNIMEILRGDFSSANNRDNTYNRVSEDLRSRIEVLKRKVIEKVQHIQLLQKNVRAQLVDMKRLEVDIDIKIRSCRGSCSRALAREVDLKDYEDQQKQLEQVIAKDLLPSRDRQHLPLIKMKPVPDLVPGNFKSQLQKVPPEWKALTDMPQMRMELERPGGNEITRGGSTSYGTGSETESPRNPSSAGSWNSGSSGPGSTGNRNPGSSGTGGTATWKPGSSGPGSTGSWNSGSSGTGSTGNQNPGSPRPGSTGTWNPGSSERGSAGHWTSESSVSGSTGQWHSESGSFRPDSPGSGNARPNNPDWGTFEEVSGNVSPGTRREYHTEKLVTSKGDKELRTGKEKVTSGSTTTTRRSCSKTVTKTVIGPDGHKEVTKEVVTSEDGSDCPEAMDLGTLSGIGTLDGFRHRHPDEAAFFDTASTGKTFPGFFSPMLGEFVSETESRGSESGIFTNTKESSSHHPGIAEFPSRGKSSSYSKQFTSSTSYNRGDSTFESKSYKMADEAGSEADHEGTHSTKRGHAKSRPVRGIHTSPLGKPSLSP
T1 chain 2: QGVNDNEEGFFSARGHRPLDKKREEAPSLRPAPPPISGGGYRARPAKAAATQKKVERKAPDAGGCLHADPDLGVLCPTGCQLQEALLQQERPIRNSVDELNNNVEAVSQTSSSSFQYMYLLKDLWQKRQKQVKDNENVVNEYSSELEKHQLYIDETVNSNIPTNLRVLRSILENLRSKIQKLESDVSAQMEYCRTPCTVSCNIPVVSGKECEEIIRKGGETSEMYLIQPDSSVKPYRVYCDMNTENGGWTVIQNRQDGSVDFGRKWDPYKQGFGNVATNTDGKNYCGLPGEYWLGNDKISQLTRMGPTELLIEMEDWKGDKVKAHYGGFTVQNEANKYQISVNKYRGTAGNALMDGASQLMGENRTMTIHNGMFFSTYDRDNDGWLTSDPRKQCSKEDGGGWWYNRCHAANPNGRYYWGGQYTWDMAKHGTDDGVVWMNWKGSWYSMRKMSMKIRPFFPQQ
T1 chain 3: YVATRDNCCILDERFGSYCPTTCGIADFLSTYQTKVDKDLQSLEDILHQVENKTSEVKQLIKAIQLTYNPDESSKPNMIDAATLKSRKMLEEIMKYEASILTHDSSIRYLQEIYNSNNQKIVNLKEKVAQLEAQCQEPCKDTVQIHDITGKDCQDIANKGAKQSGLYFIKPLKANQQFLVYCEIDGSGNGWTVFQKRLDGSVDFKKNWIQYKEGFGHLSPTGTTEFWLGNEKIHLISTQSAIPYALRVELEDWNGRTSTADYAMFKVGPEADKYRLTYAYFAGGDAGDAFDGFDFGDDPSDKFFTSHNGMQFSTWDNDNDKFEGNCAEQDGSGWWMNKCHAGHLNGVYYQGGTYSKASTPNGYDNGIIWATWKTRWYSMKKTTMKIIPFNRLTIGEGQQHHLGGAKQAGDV
The experiment is described as above. To be noted: remark: other sources report otherwise.

B1: GroEL protein of Leptospira interrogans (recombinant, His-tagged), P61438 1-546 (natural protein)
chain: MAKDIEYNETARRKLLEGVNKLANAVKVTLGPKGRNVVIDKKFGAPTITKDGVTVAKEIELEDPLENMGAQMVKEVSTKTNDVAGDGTTTATILAQSIINEGLKNVTAGANPMSLKKGIDKAVTAAVESIQKRAVKIENKKDIANVASISANNDNTIGNLIADAMDKVGKDGVITVEEAKSIETTLDVVEGMQFDRGYISPYMVTDAESMVATLNDPFILIYDKKISSMKDLIHILEKVAQAGKPLVIISEEVEGEALATIVVNTLRKTISCVAVKAPGFGDRRKSMLEDIAILTGGQVISEDLGMKLENTTLQMLGRANKVTVDKENTTIIEGKGQTKEIQGRIGQIKKQIEDTTSEYDREKLQERLAKLAGGVAVIHVGAATEVEMKEKKARVEDALSATRAAVEEGIVPGGGLTLLKAQEAVGSLKLDGDEATGAKIIFRALEEPIRMITSNAGLEGSVIVEHAKAKKGNEGFNALTMVWEDMIQAGVVDPAKVVRSALQNAASIGSMILTTEVTITDKPDKDAPNPMAGMGGGGMGGMGGMM
With B1, the Kd in experiment [1] was determined as 11 nM; in experiment [2] it was 23 nM.
